Columns and labels:
[1] = biological target: D-lactate dehydrogenase from Sporolactobacillus inulinus CASD (DLDH744) (Sporolactobacillus inulinus CASD); assay: crystal structure; DLDH744 in complex with NAD+; molecular replacement, refined at 3.15 Å; homo-dimer in one asymmetric unit
[2] = substrate: O=C(O)C(=O)Cc1ccccc1; assay: purified protein; assay type: biochemical, Sporolactobacillus inulinus; conditions: 100 mM PBS pH 5.5, 30°C, 0.2 mM NADH or NADPH (which one not told)
[3] = substrate: N[C@@H](CCC(=O)O)C(=O)O; assay: purified protein; assay type: biochemical, Sporolactobacillus inulinus; conditions: 100 mM PBS pH 5.5, 30°C, oxidative deamination, cofactor of the kinetic run not clearly told (0.2 mM NAD(P)+ in activity assay)
[4] = substrate: CC(=O)C(=O)O; assay: purified protein; assay type: biochemical, Sporolactobacillus inulinus; conditions: 100 mM PBS pH 5.5, 30°C, 0.2 mM NADH or NADPH (which one not told)

Molecule	stoichiometry N [1]	Km [2]	Km [3]	kcat [3]	Km [4]	kcat [4]
D-lactate dehydrogenase from Sporolactobacillus inulinus CASD (DLDH744) (enzyme)	2					
DLDH744 (Sporolactobacillus inulinus CASD) (protein, full length, 335 residues, homodimer; vector pET-28a(+), E. coli BL21(DE3); purified) MKIIMFSVRDDEEAAIREWEKKTGVQVDINRLELDAETAQLTKGYDGIVIQQRSHISNPAVYETLQKNGLRQLTSRTAGYDMIDLEQASERGLVVTNVPAYSPNSVAELALTQTMRLIRNLPLFDARGAEQDFRWAGLMAREIRSLTVGIIGAGRIGGTVARLFKALGATVIANDIVERVELKDIVTYVSKEELLQAADVVTLHVPLMDSTTQLIDADALALMKNDAVLINASRGPVVDTDALIAALQNKQIAGAALDTLNGEEHFFNQDLCGKELPSEQLKVLRTLPNVLITPHIGFYTNKAVQNMVEISLNDVLAILKTGTSEHQLNKVAVEN		3.32 ± 0.08 mM	5.7 ± 0.09 mM	0.372 ± 0.0017 s⁻¹	3.4 ± 0.02 mM	8.537 ± 0.127 s⁻¹
